Measured values taken from PMC10397247.

T1: P2-AA-1HGe-W
T1 chain: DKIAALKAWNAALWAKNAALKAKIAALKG

T2: P2-AA-1HGe-D
T2 chain: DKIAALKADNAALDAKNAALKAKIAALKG

T3: P2-AA-1HGe-Q
T3 chain: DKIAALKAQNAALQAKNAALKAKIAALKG

T4: P2-AA-1HGe-T
T4 chain: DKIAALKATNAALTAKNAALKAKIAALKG

T5: P2-AA
T5 chain: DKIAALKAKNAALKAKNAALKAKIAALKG

T6: P2-AA-1HGe-A
T6 chain: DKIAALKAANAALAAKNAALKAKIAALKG

T7: P2-AA-1HGe-M
T7 chain: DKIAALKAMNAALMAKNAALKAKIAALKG

T8: 4H3632-bA
T8 chain: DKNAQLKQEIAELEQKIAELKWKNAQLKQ

T9: 4H3070-bA
T9 chain: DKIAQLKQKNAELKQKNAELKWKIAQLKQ

T10: 4H496-bA
T10 chain: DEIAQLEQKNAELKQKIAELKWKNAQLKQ

T11: 4H145-bA
T11 chain: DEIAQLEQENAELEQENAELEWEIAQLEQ

T12: 4H342-bA
T12 chain: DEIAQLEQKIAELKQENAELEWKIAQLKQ

T13: 4H2619-bA
T13 chain: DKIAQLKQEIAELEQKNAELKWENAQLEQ

T14: 4H2691-bA
T14 chain: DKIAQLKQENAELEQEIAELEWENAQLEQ


How the values were obtained:
P2-AA-1HGe-W = target: T1, P2-AA-1HGe-W; assay: two-hybrid library CCmax; details: mean of both orientations;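 also: natural log of median RNA to DNA barcode read ratio; higher means stronger binding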
P2-AA-1HGe-D = target: T2, P2-AA-1HGe-D; assay: two-hybrid library CCmax; details: mean of both orientations;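 also: natural log of median RNA to DNA barcode read ratio; higher means stronger binding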
P2-AA-1HGe-Q = target: T3, P2-AA-1HGe-Q; assay: two-hybrid library CCmax; details: mean of both orientations;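 also: natural log of median RNA to DNA barcode read ratio; higher means stronger binding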
P2-AA-1HGe-T = target: T4, P2-AA-1HGe-T; assay: two-hybrid library CCmax; details: mean of both orientations;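 also: natural log of median RNA to DNA barcode read ratio; higher means stronger binding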
P2-AA = target: T5, P2-AA; assay: two-hybrid library CCmax; details: mean of both orientations;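 also: natural log of median RNA to DNA barcode read ratio; higher means stronger binding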
P2-AA-1HGe-A = target: T6, P2-AA-1HGe-A; assay: two-hybrid library CCmax; details: mean of both orientations;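 also: natural log of median RNA to DNA barcode read ratio; higher means stronger binding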
P2-AA-1HGe-M = target: T7, P2-AA-1HGe-M; assay: two-hybrid library CCmax; details: mean of both orientations
4H3632-bA = target: T8, 4H3632-bA; assay: two-hybrid library CCNG1
4H3070-bA = target: T9, 4H3070-bA; assay: two-hybrid library CCNG1; details: mean of both orientations
4H496-bA = target: T10, 4H496-bA; assay: two-hybrid library CCNG1
4H145-bA = target: T11, 4H145-bA; assay: two-hybrid library CCNG1; details: mean of both orientations
4H342-bA = target: T12, 4H342-bA; assay: two-hybrid library CCNG1
4H2619-bA = target: T13, 4H2619-bA; assay: two-hybrid library CCNG1
4H2691-bA = target: T14, 4H2691-bA; assay: two-hybrid library CCNG1

Binder	interaction score (P2-AA-1HGe-W)	interaction score (P2-AA-1HGe-D)	interaction score (P2-AA-1HGe-Q)	interaction score (P2-AA-1HGe-T)	interaction score (P2-AA)	interaction score (P2-AA-1HGe-A)	interaction score (P2-AA-1HGe-M)	interaction score (4H3632-bA)	interaction score (4H3070-bA)	interaction score (4H496-bA)	interaction score (4H145-bA)	interaction score (4H342-bA)	interaction score (4H2619-bA)	interaction score (4H2691-bA)
DEIAALEAMNAALMAENAALEAEIAALEG [P1-AA-1HGe-M]	2.3	2.01	1.9	1.98	2.14	2.28	2.29							
DEIAQLEQENAELEQENAELEWEIAQLEQ [4H145-bA]								-1.06	2.5	-1.06	-0.795	-1.12	-0.672	-0.624
